PMC7235859, “Structural and Functional Peculiarities of α-Crystallin” (Biology, 2020)

Target: the molecule itself
Test: negative-stain electron microscopy; 0.2 mg/mL, incubated 30 min at 37 °C in 20 mM Tris-HCl pH 7.5, 100 mM NaCl, 1 mM EDTA; 1% uranyl acetate; preparations from cortex, from nucleus and from Sigma; 12–14 nm particles used for 3D reconstruction

B1: native α-crystallin from bovine eye lens (complex)
chain 1: MDIAIQHPWFKRTLGPFYPSRLFDQFFGEGLFEYDLLPFLSSTISPYYRQSLFRTVLDSGISEVRSDRDKFVIFLDVKHFSPEDLTVKVQEDFVEIHGKHNERQDDHGYISREFHRRYRLPSNVDQSALSCSLSADGMLTFSGPKIPSGVDAGHSERAIPVSREEKPSSAPSS
chain 2: MDIAIHHPWIRRPFFPFHSPSRLFDQFFGEHLLESDLFPASTSLSPFYLRPPSFLRAPSWIDTGLSEMRLEKDRFSVNLDVKHFSPEELKVKVLGDVIEVHGKHEERQDEHGFISREFHRKYRIPADVDPLAITSSLSSDGVLTVNGPRKQASGPERTIPITREEKPAVTAAPKK
notes: αA-crystallin (HSPB4), bovine, isolated from eye lens as part of native α-crystallin; αB-crystallin (HSPB5), bovine, isolated from eye lens as part of native α-crystallin; Hetero-oligomeric mixture of αA- and αB-crystallin that was not separated; The number of subunits and the αA:αB ratio were not measured here (3:1 and about 42 monomers are cited); also called natural α-crystallin; authentic …
- binding result: binds
